Where two headings read alike, the source gives them in different places. Each block holds one binder with its values, some of them ahead of it. fluorescein‑5‑maleimide = fluorescein-5-maleimide
How the values were obtained:
[1] = biological target: T1, CCR1 solubilized from HEK293 membranes and purified in detergent/lipid micelles (human, UniProt P32246 1-355); assay: fluorescence polarisation
T1 sequence (looked up): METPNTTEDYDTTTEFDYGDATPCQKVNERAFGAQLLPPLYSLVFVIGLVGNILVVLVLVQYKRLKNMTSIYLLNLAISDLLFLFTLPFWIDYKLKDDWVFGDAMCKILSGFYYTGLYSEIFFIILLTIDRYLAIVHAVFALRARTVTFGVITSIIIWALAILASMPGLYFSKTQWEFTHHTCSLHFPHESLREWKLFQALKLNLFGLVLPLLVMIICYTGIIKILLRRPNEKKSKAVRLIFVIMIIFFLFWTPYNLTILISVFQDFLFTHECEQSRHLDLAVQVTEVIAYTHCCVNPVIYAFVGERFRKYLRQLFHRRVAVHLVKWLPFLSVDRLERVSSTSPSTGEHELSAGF

[2] = biological target: T1, CCR1 solubilized from HEK293 membranes …; assay: fluorescence polarisation; remark: listed apart in the source
[3] = biological target: T1, CCR1 solubilized from HEK293 membranes …; assay: fluorescence polarisation; remark: listed apart in the source
[4] = biological target: T1, CCR1 solubilized from HEK293 membranes …; assay: fluorescence polarisation; remark: listed apart in the source
[5] = biological target: T1, CCR1 solubilized from HEK293 membranes …; assay: fluorescence polarisation; remark: listed apart in the source
[6] = biological target: T2, wild-type CCR1 expressed on HEK293 cells (human, UniProt P32246 1-355); assay: cell-based or functional assay
T2 sequence (looked up): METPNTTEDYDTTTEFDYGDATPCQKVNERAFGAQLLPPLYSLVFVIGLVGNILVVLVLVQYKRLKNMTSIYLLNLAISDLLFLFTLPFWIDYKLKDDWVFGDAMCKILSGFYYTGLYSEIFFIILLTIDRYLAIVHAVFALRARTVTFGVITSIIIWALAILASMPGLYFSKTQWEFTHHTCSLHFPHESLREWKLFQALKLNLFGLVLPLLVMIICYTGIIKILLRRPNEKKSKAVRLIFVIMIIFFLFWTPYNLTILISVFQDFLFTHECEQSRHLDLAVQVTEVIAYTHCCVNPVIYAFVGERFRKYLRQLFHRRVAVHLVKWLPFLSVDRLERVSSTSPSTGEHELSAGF

[7] = biological target: T2, wild-type CCR1 expressed on HEK293 cells; assay: radioligand binding

Kd [1]: > 1000 nM | Kd [2]: 21 nM | Kd [3]: 35 nM | Kd [4]: > 1000 nM | Kd [5]: > 1000 nM
B1: CCL14-fluorescein (ligand)
chain: GPYHPSECCFTYTTYKIPRQRIMDYYETNSQCSKPGIVFITKRGHSVCTNPSDKWVQDYIKDMKENC(fluorescein‑5‑maleimide)

EC50 of calcium mobilization in CCR1-transfected HEK293 cells (FLIPR Calcium 4) [6]: 8 nM
B2: CCL7 (ligand)
chain: not shown

IC50 [7]: 0.9 nM
B3: wild-type CCL3 (ligand, UniProt P10147 24-92, looked up)
chain: SLAADTPTACCFSYTSRQIPQNFIADYFETSSQCSKPGVIFLTKRSRQVCADPSEEWVQKYVSDLELSA

— PMC2706832 (Protein expression and purification, 2009)
